The results in this text go back to patent US20180066058A1.

The IC50 is the midpoint of a concentration-inhibition curve. High values mean weaker potency in that assay, low ones greater potency in that assay.

For test [1], the target named is mouse ICOS-mFc (Chimerigen) (mouse) (UniProt Q9WVS0). Briefly: HTRF neutralisation of Alexa 647 mouse B7-H2 binding to mouse ICOS-mFc; hamster IgG, run with the IgG4.PE mAbs; mean, n = 3. In general terms: Time-resolved FRET reads energy transfer from a long-lived donor to a nearby acceptor.
Chain of mouse ICOS-mFc (Chimerigen) (mouse) (Q9WVS0 21-141 limits assumed, change not shown): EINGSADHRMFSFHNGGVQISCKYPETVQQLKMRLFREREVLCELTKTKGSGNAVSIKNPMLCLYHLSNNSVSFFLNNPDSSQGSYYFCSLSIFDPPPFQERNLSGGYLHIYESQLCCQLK
For test [2] the target is unchanged. The test can be described thus: HTRF neutralisation of Alexa 647 mouse B7-H2 binding to mouse ICOS-mFc; hamster IgG, run with the IgG1 mAbs; mean, n = 3.
Test [3] shares this target. The test can be described thus: HTRF neutralisation of Alexa 647 mouse B7-H2 binding to mouse ICOS-mFc; hamster IgG, run with the IgG1 mAbs.
The target of test [4] is human ICOS-mFc (Chimerigen) (human) (UniProt Q9Y6W8). Briefly: HTRF neutralisation of Alexa 647 human B7-H2 binding to human ICOS-mFc; hamster IgG, run with the IgG4.PE mAbs; mean, n = 4.
Chain of human ICOS-mFc (Chimerigen) (human) (Q9Y6W8 21-140, change not shown): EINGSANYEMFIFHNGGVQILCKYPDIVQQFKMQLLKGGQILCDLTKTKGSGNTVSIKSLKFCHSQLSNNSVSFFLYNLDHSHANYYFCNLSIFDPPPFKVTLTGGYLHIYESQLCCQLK
Test [5] shares this target. Briefly: HTRF neutralisation of Alexa 647 human B7-H2 binding to human ICOS-mFc; hamster IgG, run with the IgG1 mAbs; mean, n = 4.

For the substance “Anti-ICOS antibody C398.4A (hamster IgG)”, the IC50 was 200 pM in test [1]; 100 pM in test [2]; 140 pM in test [3]; 2800 pM in test [4]; 1200 pM in test [5].
